Measured values: US20150139990A1 (DAINIPPON SUMITOMO PHARMA, published 2015)

T1: human CD81 mutant H151A (human, UniProt P60033 1-236, limits assumed)
T1 construct: as m30; not shown: C-terminal V5 and 6xHis tags
T1 sequence: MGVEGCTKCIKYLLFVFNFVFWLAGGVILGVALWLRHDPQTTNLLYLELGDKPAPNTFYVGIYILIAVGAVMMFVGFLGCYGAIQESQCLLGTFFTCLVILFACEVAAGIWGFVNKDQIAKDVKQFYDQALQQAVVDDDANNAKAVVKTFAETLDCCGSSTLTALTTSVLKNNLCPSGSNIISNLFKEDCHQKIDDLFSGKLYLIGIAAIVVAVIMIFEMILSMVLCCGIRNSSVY

T2: human CD81 mutant V135L (human, UniProt P60033 1-236, limits assumed)
T2 construct: as m30; not shown: C-terminal V5 and 6xHis tags
T2 sequence: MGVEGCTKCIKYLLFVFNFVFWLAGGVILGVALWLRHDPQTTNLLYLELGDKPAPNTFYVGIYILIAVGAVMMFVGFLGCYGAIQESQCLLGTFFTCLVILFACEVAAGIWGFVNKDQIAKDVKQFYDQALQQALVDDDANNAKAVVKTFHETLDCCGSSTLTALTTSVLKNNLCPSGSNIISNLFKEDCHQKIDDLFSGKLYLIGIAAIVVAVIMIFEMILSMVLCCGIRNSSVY

T3: human CD81 mutant H151R (human, UniProt P60033 1-236, limits assumed)
T3 construct: as m30; also called H151B; not shown: C-terminal V5 and 6xHis tags
T3 sequence: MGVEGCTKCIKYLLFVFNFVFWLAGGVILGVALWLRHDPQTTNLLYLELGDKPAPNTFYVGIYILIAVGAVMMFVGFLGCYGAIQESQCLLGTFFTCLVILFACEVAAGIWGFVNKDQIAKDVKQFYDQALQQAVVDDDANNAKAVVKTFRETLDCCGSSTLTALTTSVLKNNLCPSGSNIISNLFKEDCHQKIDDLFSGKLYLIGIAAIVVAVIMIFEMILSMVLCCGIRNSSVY

T4: human CD81 mutant G158A (human, UniProt P60033 1-236, limits assumed)
T4 construct: as m30; not shown: C-terminal V5 and 6xHis tags
T4 sequence: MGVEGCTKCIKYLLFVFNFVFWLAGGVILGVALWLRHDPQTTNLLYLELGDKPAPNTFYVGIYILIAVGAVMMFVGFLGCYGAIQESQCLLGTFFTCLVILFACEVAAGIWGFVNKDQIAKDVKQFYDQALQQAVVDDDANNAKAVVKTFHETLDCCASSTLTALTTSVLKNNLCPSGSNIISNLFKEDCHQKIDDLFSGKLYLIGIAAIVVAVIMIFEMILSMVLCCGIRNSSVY

T5: human CD81 mutant A164V (human, UniProt P60033 1-236, limits assumed)
T5 construct: as m30; not shown: C-terminal V5 and 6xHis tags
T5 sequence: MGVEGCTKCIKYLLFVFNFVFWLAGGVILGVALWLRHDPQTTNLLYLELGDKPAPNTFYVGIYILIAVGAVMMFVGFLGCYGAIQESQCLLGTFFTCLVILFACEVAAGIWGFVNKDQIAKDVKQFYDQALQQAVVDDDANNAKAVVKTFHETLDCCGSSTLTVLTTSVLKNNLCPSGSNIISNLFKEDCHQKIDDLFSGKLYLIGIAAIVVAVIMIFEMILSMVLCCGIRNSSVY

T6: human CD81 mutant S168T (human, UniProt P60033 1-236, limits assumed)
T6 construct: as m30; not shown: C-terminal V5 and 6xHis tags
T6 sequence: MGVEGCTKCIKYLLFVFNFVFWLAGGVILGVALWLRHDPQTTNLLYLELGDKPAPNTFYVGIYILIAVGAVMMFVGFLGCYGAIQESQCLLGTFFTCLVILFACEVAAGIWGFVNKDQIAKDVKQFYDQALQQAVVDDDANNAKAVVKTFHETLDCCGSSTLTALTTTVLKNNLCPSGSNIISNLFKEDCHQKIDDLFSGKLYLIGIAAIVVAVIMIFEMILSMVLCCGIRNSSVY

T7: human CD81 mutant V169L (human, UniProt P60033 1-236, limits assumed)
T7 construct: as m30; not shown: C-terminal V5 and 6xHis tags
T7 sequence: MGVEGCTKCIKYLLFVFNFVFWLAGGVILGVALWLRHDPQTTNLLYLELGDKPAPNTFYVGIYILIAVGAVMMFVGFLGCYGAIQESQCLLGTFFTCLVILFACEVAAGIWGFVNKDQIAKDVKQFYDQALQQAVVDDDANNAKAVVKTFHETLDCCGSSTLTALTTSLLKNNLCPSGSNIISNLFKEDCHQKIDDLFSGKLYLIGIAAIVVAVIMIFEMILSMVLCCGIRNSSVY

T8: human CD81 mutant L170A (human, UniProt P60033 1-236, limits assumed)
T8 construct: as m30; not shown: C-terminal V5 and 6xHis tags
T8 sequence: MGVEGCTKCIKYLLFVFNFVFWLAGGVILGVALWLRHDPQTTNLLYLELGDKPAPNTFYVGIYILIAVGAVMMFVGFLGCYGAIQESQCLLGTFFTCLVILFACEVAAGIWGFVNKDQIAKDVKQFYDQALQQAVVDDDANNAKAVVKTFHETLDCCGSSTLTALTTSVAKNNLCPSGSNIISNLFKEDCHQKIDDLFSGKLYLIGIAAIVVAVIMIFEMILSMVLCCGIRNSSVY


Tests used:
Assay in all cases: ELISA
human CD81 mutant H151A = target: T1, human CD81 mutant H151A
human CD81 mutant V135L = target: T2, human CD81 mutant V135L
human CD81 mutant H151R = target: T3, human CD81 mutant H151R
human CD81 mutant G158A = target: T4, human CD81 mutant G158A
human CD81 mutant A164V = target: T5, human CD81 mutant A164V
human CD81 mutant S168T = target: T6, human CD81 mutant S168T
human CD81 mutant V169L = target: T7, human CD81 mutant V169L
human CD81 mutant L170A = target: T8, human CD81 mutant L170A

Binder | relative binding affinity (human CD81 mutant H151A) [%] | relative binding affinity (human CD81 mutant V135L) [%] | relative binding affinity (human CD81 mutant H151R) [%] | relative binding affinity (human CD81 mutant G158A) [%] | relative binding affinity (human CD81 mutant A164V) [%] | relative binding affinity (human CD81 mutant S168T) [%] | relative binding affinity (human CD81 mutant V169L) [%] | relative binding affinity (human CD81 mutant L170A) [%]
002-A07 IgG4 antibody (antibody, human IgG4 S228P, lambda light chain) heavy: not shown light: QSVLTQPPSASGTPGQRVTISCTGSTSNIGAGYDTHWYQQLPGTAPKLLIYGNSNRPSGVPDRFSGSKSGTSASLAISGLRSEDEADYYCQSYDTNLSVWVFGGGTKLTVLGQPKAAPSVTLFPPSSEELQANKATLVCLISDFYPGAVTVAWKADSSPVKAGVETTTPSKQSNNKYAASSYLSLTPEQWKSHRSYSCQVTHEGSTVEKTVAPTECS | < 20 | < 20 | < 20 | < 20 | < 20 | < 20 | < 20 | 
002-A07 N113G (antibody, human IgG4 S228P, lambda, V domains shown, IgG4 S228P; glycosylation site mutant of 002-A07 VL) VH: EVQLLESGGGLVQPGGSLRLSCAASGFTFSSNYMSWVRQAPGKGLEWVSYISSSSTYTDYADSVKGRFTISRDNSKNTLYLQMNSLRAEDTAVYYCARYSYGRDNFDYWGQGTLVTVSS VL: QSVLTQPPSASGTPGQRVTISCTGSTSNIGAGYDTHWYQQLPGTAPKLLIYGNSNRPSGVPDRFSGSKSGTSASLAISGLRSEDEADYYCQSYDTGLSVWVFGGGTKLTVLG | < 20 | < 20 | < 20 | < 20 | < 20 | < 20 | < 20 | < 20
002-A07 N113S (antibody, human IgG4 S228P, lambda, V domains shown, IgG4 S228P; glycosylation site mutant of 002-A07 VL) VH: EVQLLESGGGLVQPGGSLRLSCAASGFTFSSNYMSWVRQAPGKGLEWVSYISSSSTYTDYADSVKGRFTISRDNSKNTLYLQMNSLRAEDTAVYYCARYSYGRDNFDYWGQGTLVTVSS VL: QSVLTQPPSASGTPGQRVTISCTGSTSNIGAGYDTHWYQQLPGTAPKLLIYGNSNRPSGVPDRFSGSKSGTSASLAISGLRSEDEADYYCQSYDTSLSVWVFGGGTKLTVLG | < 20 | < 20 | < 20 | < 20 | < 20 | < 20 | < 20 | < 20
002-A07 N113Q (antibody, human IgG4 S228P, lambda, V domains shown, IgG4 S228P; glycosylation site mutant of 002-A07 VL) VH: EVQLLESGGGLVQPGGSLRLSCAASGFTFSSNYMSWVRQAPGKGLEWVSYISSSSTYTDYADSVKGRFTISRDNSKNTLYLQMNSLRAEDTAVYYCARYSYGRDNFDYWGQGTLVTVSS VL: QSVLTQPPSASGTPGQRVTISCTGSTSNIGAGYDTHWYQQLPGTAPKLLIYGNSNRPSGVPDRFSGSKSGTSASLAISGLRSEDEADYYCQSYDTQLSVWVFGGGTKLTVLG | < 20 | < 20 | < 20 | < 20 | < 20 | < 20 | < 20 | 

The remaining lines, values ahead:

relative binding affinity (human CD81 mutant H151A) [%] | relative binding affinity (human CD81 mutant V135L) [%] | relative binding affinity (human CD81 mutant H151R) [%] | relative binding affinity (human CD81 mutant G158A) [%] | relative binding affinity (human CD81 mutant A164V) [%] | relative binding affinity (human CD81 mutant S168T) [%] | relative binding affinity (human CD81 mutant V169L) [%] | relative binding affinity (human CD81 mutant L170A) [%] | Binder
< 20 | < 20 | < 20 | < 20 | < 20 | < 20 | < 20 | < 20 | 002-A07 S115A (antibody, human IgG4 S228P, lambda, V domains shown, IgG4 S228P; glycosylation site mutant of 002-A07 VL) VH: EVQLLESGGGLVQPGGSLRLSCAASGFTFSSNYMSWVRQAPGKGLEWVSYISSSSTYTDYADSVKGRFTISRDNSKNTLYLQMNSLRAEDTAVYYCARYSYGRDNFDYWGQGTLVTVSS VL: QSVLTQPPSASGTPGQRVTISCTGSTSNIGAGYDTHWYQQLPGTAPKLLIYGNSNRPSGVPDRFSGSKSGTSASLAISGLRSEDEADYYCQSYDTNLAVWVFGGGTKLTVLG
 | < 20 | < 20 |  | < 20 |  | < 20 |  | 003-D07 (antibody, human IgG4 S228P, lambda, V domains shown, IgG4 S228P) VH: EVQLLESGGGLVQPGGSLRLSCAASGFTFSSNYMSWVRQAPGKGLEWVSYISSSSTYTDYADSVKGRFTISRDNSKNTLYLQMNSLRAEDTAVYYCARYSYDRDNFDYWGQGTLVTVSS VL: QSVLTQPFSASGTPGQRVTISCTGSTSNIGAGYDTHWYQHLPGTAPKLLIYGNSNRPSGVPDRFSGSKSGTSASLAISGLRSEDEADYYCQSYDTNLSVWVFGGGTKLTVLG
 | < 20 | < 20 | < 20 | < 20 | < 20 | < 20 |  | 002-A07 S115G (antibody, human IgG4 S228P, lambda, V domains shown, IgG4 S228P; glycosylation site mutant of 002-A07 VL) VH: EVQLLESGGGLVQPGGSLRLSCAASGFTFSSNYMSWVRQAPGKGLEWVSYISSSSTYTDYADSVKGRFTISRDNSKNTLYLQMNSLRAEDTAVYYCARYSYGRDNFDYWGQGTLVTVSS VL: QSVLTQPPSASGTPGQRVTISCTGSTSNIGAGYDTHWYQQLPGTAPKLLIYGNSNRPSGVPDRFSGSKSGTSASLAISGLRSEDEADYYCQSYDTNLGVWVFGGGTKLTVLG
